In this assay the target is LFA1 receptor on T cells (human) (UniProt P20701). The assay is described as follows: cell-based or functional assay.
Chain of UniProt P20701 (P20701 26-1170, chain 1 of 2): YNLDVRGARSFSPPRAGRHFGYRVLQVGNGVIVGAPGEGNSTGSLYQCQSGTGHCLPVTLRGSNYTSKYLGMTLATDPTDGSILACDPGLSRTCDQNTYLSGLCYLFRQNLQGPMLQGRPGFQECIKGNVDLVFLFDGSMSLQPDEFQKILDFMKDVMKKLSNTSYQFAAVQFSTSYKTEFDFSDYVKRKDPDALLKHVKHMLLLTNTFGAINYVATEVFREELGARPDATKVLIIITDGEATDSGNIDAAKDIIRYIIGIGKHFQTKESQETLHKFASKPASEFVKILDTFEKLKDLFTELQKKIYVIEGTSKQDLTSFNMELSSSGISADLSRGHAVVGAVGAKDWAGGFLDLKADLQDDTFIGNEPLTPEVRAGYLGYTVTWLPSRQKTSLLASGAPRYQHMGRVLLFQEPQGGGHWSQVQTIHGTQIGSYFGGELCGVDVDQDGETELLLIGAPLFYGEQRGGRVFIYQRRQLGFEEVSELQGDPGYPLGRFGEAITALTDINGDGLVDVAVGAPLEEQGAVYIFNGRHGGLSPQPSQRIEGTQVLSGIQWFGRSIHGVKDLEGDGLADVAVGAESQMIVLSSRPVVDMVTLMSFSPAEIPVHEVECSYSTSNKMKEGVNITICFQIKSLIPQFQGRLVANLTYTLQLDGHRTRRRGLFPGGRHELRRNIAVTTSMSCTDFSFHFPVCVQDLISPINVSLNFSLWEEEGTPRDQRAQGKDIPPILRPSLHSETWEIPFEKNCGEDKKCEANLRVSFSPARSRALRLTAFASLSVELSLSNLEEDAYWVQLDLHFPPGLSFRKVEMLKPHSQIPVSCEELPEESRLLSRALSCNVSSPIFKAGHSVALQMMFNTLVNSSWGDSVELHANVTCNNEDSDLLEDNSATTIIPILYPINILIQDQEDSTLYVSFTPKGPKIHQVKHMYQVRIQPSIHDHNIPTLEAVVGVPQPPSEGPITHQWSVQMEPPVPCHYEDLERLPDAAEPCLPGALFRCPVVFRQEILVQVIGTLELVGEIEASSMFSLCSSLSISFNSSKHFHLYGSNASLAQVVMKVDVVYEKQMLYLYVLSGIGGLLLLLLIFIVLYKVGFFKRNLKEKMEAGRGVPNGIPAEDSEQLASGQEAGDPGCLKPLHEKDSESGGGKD
Chain of UniProt P20701 (P05107 23-769, chain 2 of 2, further chain): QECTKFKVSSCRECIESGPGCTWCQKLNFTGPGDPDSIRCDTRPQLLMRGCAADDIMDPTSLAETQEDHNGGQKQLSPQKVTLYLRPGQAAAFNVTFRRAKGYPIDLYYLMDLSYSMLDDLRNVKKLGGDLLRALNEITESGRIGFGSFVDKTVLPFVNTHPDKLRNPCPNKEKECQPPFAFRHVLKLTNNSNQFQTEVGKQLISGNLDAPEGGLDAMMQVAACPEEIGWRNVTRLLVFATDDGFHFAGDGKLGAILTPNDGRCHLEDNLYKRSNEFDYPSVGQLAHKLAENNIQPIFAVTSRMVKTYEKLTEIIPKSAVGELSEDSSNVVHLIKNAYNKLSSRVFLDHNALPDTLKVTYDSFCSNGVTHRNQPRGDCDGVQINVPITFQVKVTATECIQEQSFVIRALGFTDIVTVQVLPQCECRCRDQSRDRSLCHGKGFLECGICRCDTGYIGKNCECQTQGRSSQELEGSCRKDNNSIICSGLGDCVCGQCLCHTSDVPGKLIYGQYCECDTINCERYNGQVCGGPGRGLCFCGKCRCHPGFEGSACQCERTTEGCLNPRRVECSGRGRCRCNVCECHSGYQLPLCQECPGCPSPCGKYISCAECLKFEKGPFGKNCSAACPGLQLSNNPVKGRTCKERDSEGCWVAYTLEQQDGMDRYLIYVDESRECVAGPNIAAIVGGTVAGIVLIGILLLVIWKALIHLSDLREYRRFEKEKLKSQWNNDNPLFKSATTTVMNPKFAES

Turning to anti-LFA1 (TS1/18) monoclonal antibody, the IFN-γ secretion (ELISA) by CD4+ T cells stimulated with IL12, IL18 and TL1A after pretreatment with LFA1 blocking antibody, compared to IgG control antibody turned out to be 43 % reduction.

The values above are taken from patent US12618111.
